Measured values as given in article PMC12451834.

Target: RNA-binding protein EWS low-complexity domain (EWS^LCD, residues 1-264) (UniProt Q01844)
Experiment: condensate partitioning assay

percent (w/w) co-partitioned into condensates with EWS^LCD: 53 % w/w
Substance: EWS^RRM-RGG2 (central RNA-binding region of EWS: RNA-recognition motif and RGG2 domain) (domain or fragment)
